How the values were obtained:
[1] = target: T1, 人CD47 (Jurkat细胞, 高表达人CD47) (human, UniProt Q08722 19-323); assay: flow cytometry competition against hSIRPa(ECD)-Fc-Biotin on Jurkat cells
T1 construct: whole, on cells

[2] = target: T2, hCD47(ECD)-Fc (human, UniProt Q08722 19-139); assay: BLI (Fortebio Red96), Protein A probes, 30℃
T2 construct: extracellular domain; not shown: Fc part not described

[3] = target: T3, hPD-L1(ECD)-Fc (human, UniProt Q9NZQ7 19-238); assay: BLI (Fortebio Red96), Protein A probes, 30℃
T3 construct: extracellular domain; also called 重组人PD-L1; not shown: Fc part not described
T3 sequence (Q9NZQ7 19-238): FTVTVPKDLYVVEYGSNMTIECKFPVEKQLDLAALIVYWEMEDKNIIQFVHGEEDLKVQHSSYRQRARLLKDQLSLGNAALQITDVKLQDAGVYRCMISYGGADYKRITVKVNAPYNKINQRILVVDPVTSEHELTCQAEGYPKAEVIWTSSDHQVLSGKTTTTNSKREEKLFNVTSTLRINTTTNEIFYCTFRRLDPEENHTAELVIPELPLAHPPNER

T1 sequence (Q08722 19-323): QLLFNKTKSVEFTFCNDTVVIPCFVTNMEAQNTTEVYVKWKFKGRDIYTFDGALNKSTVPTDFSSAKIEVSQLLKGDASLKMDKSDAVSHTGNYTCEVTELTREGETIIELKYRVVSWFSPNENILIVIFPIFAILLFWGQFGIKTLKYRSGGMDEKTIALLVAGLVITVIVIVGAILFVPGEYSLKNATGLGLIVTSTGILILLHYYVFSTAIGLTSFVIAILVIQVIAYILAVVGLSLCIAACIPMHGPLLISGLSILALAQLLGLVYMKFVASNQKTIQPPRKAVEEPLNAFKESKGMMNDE
T2 sequence (Q08722 19-139): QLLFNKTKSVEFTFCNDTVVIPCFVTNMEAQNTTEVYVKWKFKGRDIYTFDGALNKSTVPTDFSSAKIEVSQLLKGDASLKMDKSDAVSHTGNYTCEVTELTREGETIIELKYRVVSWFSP

Row | Binder | IC50 [1] [nM] | Kd [2] [nM] | Kd [3] [nM]
1 | CD47单域抗体Fc融合蛋白(Nb-Fc) (Fc fusion, Control; also called CD47 Nb-Fc; 原始CD47单域抗体; not shown: Fc part (and any hinge or linker) of the control fusion is not described) QVQLQESGGGLVQPGGSLRLSCAASGYAYTSDCMGWFRQTPGKGLEGVALIYTPGASTNYADSVKGRFTISQDNSKSTVYLQMNSLRAEDTAMYYCAARRGACSLRLPFFYWGQGTLVTVSS | 4.49 | 6.13 | 
2 | PD-L1单域抗体Fc融合蛋白(Nb-Fc) (Fc fusion, Control; also called PD-L1 Nb-Fc; 原始PD-L1单域抗体; not shown: Fc part (and any hinge or linker) of the control fusion is not described) QVQLQESGGGLVQPGGSLRLSCTASGYNLSPSCMGWFRQAPGKGLEGVAFTDADGSTRYADSVKARFTISRDNSKNTLYLQMNSLRAEDTAVYYCAADFFSYCSVVFRASARDKYRGQGTLVTVSS |  |  | 26.5

Reference: patent CN112745392A (SHANGHAI NOVAMAB BIOPHARMACEUTICALS CO LTD, dated 2021)
